Source: paper PMC10234438

Tested on: IMP3 (GST-/His-tagged) (human)
Experiment: EMSA
Settings: EMSA: 10 mM Tris-HCl pH 7.5, 150 mM NaCl, 0.5 mM EDTA, 0.5 mM DTT, 0.1% NP-40, 5% glycerol, RNaseOUT, 1 ug tRNA, 1 ug BSA, 5 nM RNA, 30 min at 25 C, then 5 min …

| Substance | Kd (circular (T4 RNA ligase)) | Kd |
| --- | --- | --- |
| 101-mer circRNA | 10.4 nM | – |
| 101-mer linear | – | 9.3 nM |
| ANKRD17 circRNA | 8.5 nM | – |
| ANKRD17 linear | – | 8.7 nM |
| all-UG circRNA | 60.3 nM | – |
| all-UG linear | – | 48.8 nM |
